IntAct's records for PubMed 17641689

B1: Retinoic acid receptor alpha (Homo sapiens), P10276 (parent)
chain: MASNSSSCPTPGGGHLNGYPVPPYAFFFPPMLGGLSPPGALTTLQHQLPVSGYSTPSPATIETQSSSSEEIVPSPPSPPPLPRIYKPCFVCQDKSSGYHYGVSACEGCKGFFRRSIQKNMVYTCHRDKNCIINKVTRNRCQYCRLQKCFEVGMSKESVRNDRNKKKKEVPKPECSESYTLTPEVGELIEKVRKAHQETFPALCQLGKYTTNNSSEQRVSLDIDLWDKFSELSTKCIIKTVEFAKQLPGFTTLTIADQITLLKAACLDILILRICTRYTPEQDTMTFSDGLTLNRTQMHNAGFGPLTDLVFAFANQLLPLEMDDAETGLLSAICLICGDRQDLEQPDRVDMLQEPLLEALKVYVRKRRPSRPHMFPKMLMKITDLRSISAKGAERVITLKMEIPGSMPPLIQEMLENSEGLDTLSGQPGGGGRDGGGLAPPPGSCSPSLSPSSNRSSPATHSP
partner: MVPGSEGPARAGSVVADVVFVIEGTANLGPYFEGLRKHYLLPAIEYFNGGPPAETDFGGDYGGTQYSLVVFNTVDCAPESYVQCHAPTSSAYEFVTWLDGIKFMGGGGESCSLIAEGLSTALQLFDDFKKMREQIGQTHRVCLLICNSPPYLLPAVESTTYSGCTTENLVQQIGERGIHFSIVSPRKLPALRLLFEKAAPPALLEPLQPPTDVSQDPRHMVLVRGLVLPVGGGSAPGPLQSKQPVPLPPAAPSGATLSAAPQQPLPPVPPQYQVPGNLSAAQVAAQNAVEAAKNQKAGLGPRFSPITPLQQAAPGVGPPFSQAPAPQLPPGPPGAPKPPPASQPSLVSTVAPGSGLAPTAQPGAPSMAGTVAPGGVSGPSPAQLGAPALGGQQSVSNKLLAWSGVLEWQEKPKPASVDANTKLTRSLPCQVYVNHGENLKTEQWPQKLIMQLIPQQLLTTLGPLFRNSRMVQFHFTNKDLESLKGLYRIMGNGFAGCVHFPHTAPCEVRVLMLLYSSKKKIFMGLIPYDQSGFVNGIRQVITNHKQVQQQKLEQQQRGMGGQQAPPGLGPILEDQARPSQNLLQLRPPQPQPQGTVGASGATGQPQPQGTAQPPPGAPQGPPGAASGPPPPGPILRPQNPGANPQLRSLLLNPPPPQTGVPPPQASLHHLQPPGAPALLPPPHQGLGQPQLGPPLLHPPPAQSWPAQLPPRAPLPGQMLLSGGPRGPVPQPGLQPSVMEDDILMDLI
B2: Retinoic acid receptor RXR-alpha (Mus musculus), P28700 (parent)
chain: MDTKHFLPLDFSTQVNSSSLNSPTGRGSMAVPSLHPSLGPGIGSPLGSPGQLHSPISTLSSPINGMGPPFSVISSPMGPHSMSVPTTPTLGFGTGSPQLNSPMNPVSSTEDIKPPLGLNGVLKVPAHPSGNMASFTKHICAICGDRSSGKHYGVYSCEGCKGFFKRTVRKDLTYTCRDNKDCLIDKRQRNRCQYCRYQKCLAMGMKREAVQEERQRGKDRNENEVESTSSANEDMPVEKILEAELAVEPKTETYVEANMGLNPSSPNDPVTNICQAADKQLFTLVEWAKRIPHFSELPLDDQVILLRAGWNELLIASFSHRSIAVKDGILLATGLHVHRNSAHSAGVGAIFDRVLTELVSKMRDMQMDKTELGCLRAIVLFNPDSKGLSNPAEVEALREKVYASLEAYCKHKYPEQPGRFAKLLLRLPALRSIGLKCLEHLFFFKLIGDTPIDTFLMEMLEAPHQAT
partner: B1 partner

Variants of: B1
Settings: with med25_human MED25, Q71SY5

| effect of a mutation on the interaction | Variant |
| --- | --- |
| disrupting interaction | I410A |
| disrupting interaction | L409A |

Variants of: B1
Settings: with med25_human MED25, Q71SY5
Remark: another data set of the same source

| effect of a mutation on the interaction | Variant |
| --- | --- |
| disrupting interaction | E412Q |
| disrupting interaction | E415Q |

Variants of: B1
Settings: with med25_human MED25, Q71SY5
Remark: another data set of the same source

| effect of a mutation on the interaction | Variant |
| --- | --- |
| disrupting interaction | L414A |
| disrupting interaction | M413A |

Variants of: B2
Settings: with med25_human MED25, Q71SY5

| effect of a mutation on the interaction | Variant |
| --- | --- |
| disrupting interaction | L460A |
| disrupting interaction | M459A |

Variants of: B2
Settings: with med25_human MED25, Q71SY5
Remark: another data set of the same source

| effect of a mutation on the interaction | Variant |
| --- | --- |
| disrupting interaction | F455A |

Variants of: B2
Settings: with med25_human MED25, Q71SY5
Remark: another data set of the same source

| effect of a mutation on the interaction | Variant |
| --- | --- |
| decreasing interaction | E461Q |
